The results in this text go back to paper PMC9457596, “Optimization of Bifunctional Antisense Oligonucleotides for Regulation of Mutually Exclusive Alternative Splicing of PKM Gene”.

Sequences and labels used below:
B1: D2 (structured_RNA)
RNA: UAGGUUAGGU
B2: B2 (structured_RNA)
RNA: CAGGUGAGUCAGGUGAGU
B3: B3 (structured_RNA)
RNA: CAGGUGAGUCAGGUGAGUCAGGUGAGU
B4: A3 (ssRNA)
RNA: CAGGUAAGUCAGGUAAGUCAGGUAAGU
B5: A2 (ssRNA)
RNA: CAGGUAAGUCAGGUAAGU
B6: C2 (ssRNA)
RNA: UAGGAUAGGA
B7: sequence A (1) (ssRNA)
RNA: CAGGUAAGU
B8: oligo 7 (ssRNA)
RNA: UGUAGG
B9: oligo 6 (ssRNA)
RNA: AAGGUAAGU
B10: oligo 41 (ssRNA)
RNA: AUUUA
B11: oligo 5 (ssRNA)
RNA: UAGG
B12: sequence B (2) (ssRNA)
RNA: CAGGUGAGU
B13: sequence D (ssRNA)
RNA: UAGGU
B14: sequence C (3) (ssRNA)
RNA: UAGGA
B15: oligo 20 (ssRNA)
RNA: AAGGUGAU
B16: oligo 21 (ssRNA)
RNA: CACAGA

For the first data set, the target named is T1, hnRNP A1 (UniProt P09651 2-196). Description: EMSA; 150 mM KCl, 50 mM L-Arg, 50 mM L-Glu, 1.5 mM MgCl2, 0.2 mM EDTA, 0.05% BME, 20 mM Na2HPO4, pH 7.0, 4 C, 30 min; 0.5 uM RNA, 0.1-60 uM protein (Kd) or 60 uM (scr). The settings on record: protein: recombinant; label: 5'-6-FAM; G4, intermolecular, two tetrads.
T1 sequence (P09651 2-196): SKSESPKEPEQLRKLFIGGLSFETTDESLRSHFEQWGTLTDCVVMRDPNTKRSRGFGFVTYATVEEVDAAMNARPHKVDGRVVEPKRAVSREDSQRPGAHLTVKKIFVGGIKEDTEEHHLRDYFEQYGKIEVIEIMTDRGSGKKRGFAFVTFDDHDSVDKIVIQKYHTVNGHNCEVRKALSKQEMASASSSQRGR
With B1, the Kd stood at 1200 nM.

Staying with this data set, now noted: protein: recombinant; label: 5'-6-FAM; duplex/hairpin.
As for B2, the Kd came out at 1760 nM.

On to B3, for which the Kd is 1990 nM.

The same data set, now with this note: protein: recombinant; label: 5'-6-FAM; no UV melting transition.
On to B4, for which the dissociation constant (Kd) was approximately 1700 nM.

Consider B5, for which the Kd is approximately 1700 nM.

The same data set, now with this note: protein: recombinant; label: 5'-6-FAM; single-stranded.
Consider B6, for which the Kd is 1440 nM.

The target in a further data set is T1, hnRNP A1. As to the kind of experiment: EMSA; 60 uM protein, 0.5 uM RNA; 150 mM KCl, 50 mM L-Arg, 50 mM L-Glu, 1.5 mM MgCl2, 0.2 mM EDTA, 0.05% BME, 20 mM Na2HPO4, pH 7.0, 4 C, 30 min; 0.5 uM RNA, 0.1-60 uM protein (Kd) or 60 uM (scr). The settings on record: protein: recombinant; label: 5'-6-FAM.
In the case of B7, the binding result is listed as “binds”.

Consider B8, for which the binding result is listed as “binds”.

With B9, the binding result was “binds”.

For B10, the binding result is “no binding”.

With B11, the binding result is reported as “binds”.

As to B12, the binding result is “binds”.

For B13, the binding result is recorded as “binds”.

With B14, the binding result is “binds”.

With B15, the binding result was “no binding”.

B16: the binding result is “no binding”.

By Kd is commonly meant the equilibrium constant for the complex coming apart.
